Reference: publication PMC7758071, “Calcium depletion challenges endoplasmic reticulum proteostasis by destabilising BiP-substrate complexes” (eLife, 2020)
Values joined by “and” are separate entries in the source; they are usually repeats but may differ in a detail not shown here. Equal entries are not always repeated. One block for each binder: values may come before it. Ends that are not written are not given here. * marks the point of attachment. Biotin = O=C1N[C@H]2[C@H](CS[C@H]2CCCCC(=O)*)N1

What was measured:
[1] = target: T1, BiP (Chinese hamster, wild type, UK173) (Chinese hamster, UniProt G3I8R9 19-654); assay: BLI; as a1, association with Mg + ATP; dissociation with Mg + Ca + ATP ([MgCl2]/[CaCl2]=3); details: both partners purified
T1 construct: BiP (Grp78), the ER Hsp70 chaperone, Chinese hamster (Cricetulus griseus), wild type; called full-length BiP in the results; also called Grp78; mammalian BiP; source: E. coli M15, purified (Ni-NTA)

[2] = target: T2, BiP from Drosophila melanogaster (UK2354) (Drosophila melanogaster, UniProt P29844 19-656); assay: BLI; streptavidin sensor with biotinylated ERdj6 J-domain (J) and biotinylated P15 co-immobilised; association: 5 µM Hsp70, 3 mM MgCl2, 1.5 mM ATP; dissociation in protein-free solution with Mg + ATP + ADP ([ATP]/[ADP]=2); 28°C; 50 mM HEPES-KOH pH 7.4, 100 mM KCl, 0.2 mM TCEP, 0.05% Triton X-100; one-phase decay fit; details: both partners purified
T2 construct: BiP homologue of Drosophila melanogaster; the ER signal peptide is probably absent from the bacterial construct; also called dBiP; Drosophila BiP; source: E. coli BL21 T7 Express lysY/Iq, purified (Ni-NTA, Ulp1 cleavage, anion exchange); not shown: His6-Smt3, N-terminal, cleaved

[3] = target: T3, human cytosolic Hsp70 (HSPA1A; UK2510; natural variant E110D) (human, UniProt P0DMV8 1-641, E110D); assay: as above; details: both partners purified
T3 construct: human cytosolic Hsp70 (HSPA1A), natural variant E110D; source: E. coli BL21 T7 Express lysY/Iq, purified (Ni-NTA, Ulp1 cleavage, anion exchange); not shown: His6-Smt3, N-terminal, cleaved

[4] = target: T1, BiP (Chinese hamster, wild type, UK173); assay: as above; details: both partners purified
[5] = target: T4, human Hsc70 (HSPA8; UK2511) (human, UniProt P11142 1-646); assay: as above; details: both partners purified
T4 construct: human cytosolic Hsc70 (HSPA8); source: E. coli BL21 T7 Express lysY/Iq, purified (Ni-NTA, Ulp1 cleavage, anion exchange); not shown: His6-Smt3, N-terminal, cleaved

[6] = target: T1, BiP (Chinese hamster, wild type, UK173); assay: BLI; as a7, but dissociation with Mg + Ca + ATP + ADP ([MgCl2]/[CaCl2]=3; [ATP]/[ADP]=2); details: both partners purified
[7] = target: T1, BiP (Chinese hamster, wild type, UK173); assay: BLI; as a1, but association with Mg + Ca + ATP ([MgCl2]/[CaCl2]=3); dissociation with Mg + ATP; details: both partners purified
[8] = target: T1, BiP (Chinese hamster, wild type, UK173); assay: BLI; streptavidin sensor with biotinylated ERdj6 J-domain (J) and biotinylated P15 co-immobilised; association: 5 µM Hsp70, 3 mM MgCl2, 1.5 mM ATP; dissociation in protein-free solution with Mg + ATP + ADP ([ATP]/[ADP]=2); 28°C; 50 mM HEPES-KOH pH 7.4, 100 mM KCl, 0.2 mM TCEP, 0.05% Triton X-100; one-phase decay fit; details: both partners purified; remark: listed apart in the source
[9] = target: T2, BiP from Drosophila melanogaster …; assay: BLI; as a7, but dissociation with Mg + Ca + ATP + ADP ([MgCl2]/[CaCl2]=3; [ATP]/[ADP]=2); details: both partners purified
[10] = target: T3, human cytosolic Hsp70 (HSPA1A; UK2510; …); assay: as above; details: both partners purified
[11] = target: T1, BiP (Chinese hamster, wild type, UK173); assay: as above; details: both partners purified; remark: listed apart in the source
[12] = target: T4, human Hsc70 (HSPA8; UK2511); assay: as above; details: both partners purified
[13] = target: T1, BiP (Chinese hamster, wild type, UK173); assay: BLI; as a1, association with Mg + ATP; first dissociation step with Mg + ADP, then second dissociation step (the one fitted) with Mg + ATP; details: both partners purified
[14] = target: T1, BiP (Chinese hamster, wild type, UK173); assay: BLI; streptavidin sensor with biotinylated ERdj6 J-domain (J) and biotinylated P15 co-immobilised; association: 5 µM BiP, MgCl2 + ATP; dissociation in protein-free solution with Mg + ATP; 28°C; 50 mM HEPES-KOH pH 7.4, 100 mM KCl, 0.2 mM TCEP, 0.05% Triton X-100; one-phase decay fit; details: both partners purified
[15] = target: T1, BiP (Chinese hamster, wild type, UK173); assay: BLI; as a1, association with Mg + ATP; first dissociation step with Ca + ADP, then second dissociation step (the one fitted) with Mg + ATP; details: both partners purified
[16] = target: T1, BiP (Chinese hamster, wild type, UK173); assay: BLI; as a1, but the non-functional H422Q J-domain (J^QPD) co-immobilised with P15; association with Mg + ATP; dissociation with Mg + ATP; details: both partners purified
[17] = target: T1, BiP (Chinese hamster, wild type, UK173); assay: BLI; as a1, association with Mg + ATP; dissociation with Mg + ADP; details: both partners purified
[18] = target: T1, BiP (Chinese hamster, wild type, UK173); assay: BLI; streptavidin sensor with biotinylated ERdj6 J-domain (J) and biotinylated P15 co-immobilised; association: 5 µM Hsp70, 3 mM MgCl2, 1.5 mM ATP; dissociation in protein-free solution with Mg + ATP + ADP ([ATP]/[ADP]=2); 28°C; 50 mM HEPES-KOH pH 7.4, 100 mM KCl, 0.2 mM TCEP, 0.05% Triton X-100; one-phase decay fit; details: both partners purified; remark: listed apart in the source
[19] = target: T1, BiP (Chinese hamster, wild type, UK173); assay: BLI; as a8, dissociation with Mg + Ca + ATP + ADP and Grp170 present in the dissociation step; details: both partners purified
[20] = target: T1, BiP (Chinese hamster, wild type, UK173); assay: BLI; as a7, but dissociation with Mg + Ca + ATP + ADP ([MgCl2]/[CaCl2]=3; [ATP]/[ADP]=2); details: both partners purified; remark: listed apart in the source
[21] = target: T1, BiP (Chinese hamster, wild type, UK173); assay: BLI; as a7, dissociation with Mg + ATP + ADP and Grp170 present in the dissociation step; details: both partners purified
[22] = target: T5, DnaK from Escherichia coli (UK2243) (Escherichia coli, UniProt P0A6Y8 1-638); assay: BLI; streptavidin sensor with biotinylated J-domain of E. coli DnaJ (residues 1-72) and biotinylated P15 co-immobilised; association: 5 µM DnaK, 3 mM MgCl2, 1.5 mM ATP; dissociation in protein-free solution with Mg + ATP + ADP ([ATP]/[ADP]=2); 28°C; 50 mM HEPES-KOH pH 7.4, 100 mM KCl, 0.2 mM TCEP, 0.05% Triton X-100; one-phase decay fit; details: both partners purified
T5 construct: DnaK, the Hsp70 of Escherichia coli; also called bacterial DnaK; source: E. coli BL21 T7 Express lysY/Iq, purified (Ni-NTA, Ulp1 cleavage, anion exchange, second Ni-NTA); not shown: His6-Smt3, N-terminal, cleaved

[23] = target: T1, BiP (Chinese hamster, wild type, UK173); assay: BLI; as a1, association with Mg + ATP; dissociation with Ca + ATP (Ca2+ the only divalent cation); details: both partners purified
[24] = target: T1, BiP (Chinese hamster, wild type, UK173); assay: BLI; as a1, but the non-functional H422Q J-domain (J^QPD) co-immobilised with P15; association with Mg + ATP; dissociation with Mg + ATP; details: both partners purified; remark: listed apart in the source
[25] = target: T5, DnaK from Escherichia coli (UK2243); assay: BLI; as a14, but dissociation with Mg + Ca + ATP + ADP; details: both partners purified
[26] = target: T1, BiP (Chinese hamster, wild type, UK173); assay: BLI; as a1, association with Mg + ATP; dissociation (step 1) with Ca + ADP; details: both partners purified
[27] = target: the molecule itself; assay: crystal structure; BiP^T229A-V461F (28-549) at 150 µM with equimolar FICD^L258D-H363A and 175 µM ATP (FICD excluded from the crystals); apo: 20% PEG3350, 0.1 M Bis-Tris Propane pH 7.5, 0.2 M Na3Citrate; ADP-bound: 20% PEG3350, 0.2 M K3Citrate

T5 sequence (P0A6Y8 whole entry, the tested form may be a part): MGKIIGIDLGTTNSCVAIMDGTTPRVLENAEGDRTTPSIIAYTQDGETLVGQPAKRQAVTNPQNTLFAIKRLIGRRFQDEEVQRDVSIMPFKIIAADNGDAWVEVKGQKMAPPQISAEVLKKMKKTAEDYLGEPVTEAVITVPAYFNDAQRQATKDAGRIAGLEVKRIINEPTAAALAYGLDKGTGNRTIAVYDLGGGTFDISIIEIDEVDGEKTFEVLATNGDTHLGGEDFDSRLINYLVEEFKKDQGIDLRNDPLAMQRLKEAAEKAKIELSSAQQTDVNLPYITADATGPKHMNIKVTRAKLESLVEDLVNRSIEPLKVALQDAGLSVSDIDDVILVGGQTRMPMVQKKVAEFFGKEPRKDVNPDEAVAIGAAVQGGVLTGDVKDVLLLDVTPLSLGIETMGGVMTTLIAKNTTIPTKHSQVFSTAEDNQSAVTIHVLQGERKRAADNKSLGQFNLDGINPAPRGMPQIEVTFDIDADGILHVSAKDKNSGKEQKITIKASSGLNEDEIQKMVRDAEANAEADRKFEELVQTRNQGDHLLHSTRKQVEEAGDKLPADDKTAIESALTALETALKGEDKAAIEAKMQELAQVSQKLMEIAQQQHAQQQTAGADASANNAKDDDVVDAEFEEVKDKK
T2 sequence (P29844 19-656): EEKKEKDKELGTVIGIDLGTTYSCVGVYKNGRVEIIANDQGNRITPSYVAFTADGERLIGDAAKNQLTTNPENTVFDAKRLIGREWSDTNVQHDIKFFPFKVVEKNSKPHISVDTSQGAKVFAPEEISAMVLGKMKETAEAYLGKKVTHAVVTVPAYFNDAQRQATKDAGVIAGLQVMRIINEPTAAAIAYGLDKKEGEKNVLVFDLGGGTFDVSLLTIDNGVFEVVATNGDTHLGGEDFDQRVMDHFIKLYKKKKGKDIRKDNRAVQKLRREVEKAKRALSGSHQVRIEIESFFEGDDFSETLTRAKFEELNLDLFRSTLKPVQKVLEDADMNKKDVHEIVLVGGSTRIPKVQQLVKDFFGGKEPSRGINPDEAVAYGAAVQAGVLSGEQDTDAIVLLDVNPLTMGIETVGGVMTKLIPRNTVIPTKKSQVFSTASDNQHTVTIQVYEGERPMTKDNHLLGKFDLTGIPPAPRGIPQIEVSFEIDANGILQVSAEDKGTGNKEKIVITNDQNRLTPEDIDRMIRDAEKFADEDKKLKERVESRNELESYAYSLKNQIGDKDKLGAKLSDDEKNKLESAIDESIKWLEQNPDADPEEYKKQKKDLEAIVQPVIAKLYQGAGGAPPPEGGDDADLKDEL
T1 sequence (G3I8R9 19-654): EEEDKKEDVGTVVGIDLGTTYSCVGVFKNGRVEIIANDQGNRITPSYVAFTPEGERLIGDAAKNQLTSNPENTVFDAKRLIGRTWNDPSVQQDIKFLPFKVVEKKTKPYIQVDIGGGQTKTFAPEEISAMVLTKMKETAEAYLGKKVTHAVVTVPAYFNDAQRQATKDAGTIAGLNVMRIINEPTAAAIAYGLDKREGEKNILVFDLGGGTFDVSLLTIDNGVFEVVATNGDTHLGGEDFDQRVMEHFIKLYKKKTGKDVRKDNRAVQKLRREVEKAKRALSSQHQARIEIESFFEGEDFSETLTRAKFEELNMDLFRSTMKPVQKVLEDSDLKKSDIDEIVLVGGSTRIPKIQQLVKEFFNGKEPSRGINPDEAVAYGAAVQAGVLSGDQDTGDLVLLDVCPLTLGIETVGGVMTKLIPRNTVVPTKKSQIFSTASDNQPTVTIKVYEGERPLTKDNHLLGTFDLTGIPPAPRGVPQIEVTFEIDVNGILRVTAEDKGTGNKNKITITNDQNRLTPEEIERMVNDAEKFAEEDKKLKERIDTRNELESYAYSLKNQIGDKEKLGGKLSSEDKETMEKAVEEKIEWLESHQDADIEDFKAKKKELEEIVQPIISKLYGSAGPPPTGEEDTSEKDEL
T3 sequence (P0DMV8 whole entry E110D): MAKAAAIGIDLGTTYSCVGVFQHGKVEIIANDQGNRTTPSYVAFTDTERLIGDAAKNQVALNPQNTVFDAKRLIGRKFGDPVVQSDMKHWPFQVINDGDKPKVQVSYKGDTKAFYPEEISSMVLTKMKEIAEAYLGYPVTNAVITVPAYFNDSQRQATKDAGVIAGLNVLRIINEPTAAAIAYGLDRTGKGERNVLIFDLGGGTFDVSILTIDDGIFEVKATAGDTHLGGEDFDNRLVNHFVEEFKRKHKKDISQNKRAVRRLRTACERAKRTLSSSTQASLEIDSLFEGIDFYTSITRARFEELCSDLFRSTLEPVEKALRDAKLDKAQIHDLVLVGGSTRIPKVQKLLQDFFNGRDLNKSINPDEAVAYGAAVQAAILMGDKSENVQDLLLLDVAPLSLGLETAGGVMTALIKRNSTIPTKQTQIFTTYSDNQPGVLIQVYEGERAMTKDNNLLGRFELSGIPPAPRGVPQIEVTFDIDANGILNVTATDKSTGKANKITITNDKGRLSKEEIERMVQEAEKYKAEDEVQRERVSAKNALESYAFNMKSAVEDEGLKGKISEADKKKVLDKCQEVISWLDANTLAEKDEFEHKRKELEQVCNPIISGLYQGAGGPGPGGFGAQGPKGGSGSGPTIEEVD
T4 sequence (P11142 whole entry): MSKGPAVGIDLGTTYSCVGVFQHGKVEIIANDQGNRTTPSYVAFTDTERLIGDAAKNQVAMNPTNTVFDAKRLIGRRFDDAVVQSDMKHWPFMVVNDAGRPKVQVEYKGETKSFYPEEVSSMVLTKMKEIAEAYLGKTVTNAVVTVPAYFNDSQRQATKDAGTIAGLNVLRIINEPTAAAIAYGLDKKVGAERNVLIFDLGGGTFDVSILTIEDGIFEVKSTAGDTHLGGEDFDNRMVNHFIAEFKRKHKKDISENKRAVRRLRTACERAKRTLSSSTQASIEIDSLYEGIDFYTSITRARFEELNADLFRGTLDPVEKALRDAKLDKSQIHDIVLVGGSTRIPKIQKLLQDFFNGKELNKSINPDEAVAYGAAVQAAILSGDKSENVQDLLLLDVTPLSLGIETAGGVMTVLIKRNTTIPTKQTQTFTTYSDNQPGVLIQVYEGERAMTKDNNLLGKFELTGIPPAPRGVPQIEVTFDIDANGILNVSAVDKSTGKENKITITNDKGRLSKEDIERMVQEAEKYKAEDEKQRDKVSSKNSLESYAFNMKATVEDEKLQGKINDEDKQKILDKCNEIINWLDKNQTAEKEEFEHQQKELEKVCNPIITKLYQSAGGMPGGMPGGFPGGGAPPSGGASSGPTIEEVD

- koff [1]: 0.00575 s⁻¹ and 0.00678 s⁻¹ and 0.00573 s⁻¹
- koff ([1]; mean): 0.00609 s⁻¹
- koff [2]: 0.00811 s⁻¹ and 0.00832 s⁻¹ and 0.00795 s⁻¹ and 0.00806 s⁻¹
- koff [3]: 0.00203 s⁻¹ and 0.00225 s⁻¹ and 0.00198 s⁻¹ and 0.00185 s⁻¹
- koff [4]: 0.00441 s⁻¹ and 0.00438 s⁻¹ and 0.00434 s⁻¹ and 0.00453 s⁻¹
- koff [5]: 0.00395 s⁻¹ and 0.00411 s⁻¹ and 0.00394 s⁻¹ and 0.0038 s⁻¹
- koff [6]: 0.00239 s⁻¹ and 0.00247 s⁻¹ and 0.00254 s⁻¹
- koff ([6]; mean): 0.00247 s⁻¹
- koff [7]: 0.00546 s⁻¹ and 0.00506 s⁻¹ and 0.00591 s⁻¹
- koff ([7]; mean): 0.00547 s⁻¹
- koff [8]: 0.00421 s⁻¹ and 0.00438 s⁻¹ and 0.00441 s⁻¹
- koff ([8]; mean): 0.00433 s⁻¹
- koff [9]: 0.00384 s⁻¹ and 0.00414 s⁻¹ and 0.00359 s⁻¹ and 0.0038 s⁻¹
- koff [10]: 0.00171 s⁻¹ and 0.00178 s⁻¹ and 0.00164 s⁻¹
- koff [11]: 0.0025 s⁻¹ and 0.00254 s⁻¹ and 0.00241 s⁻¹ and 0.00255 s⁻¹
- koff [12]: 0.00336 s⁻¹ and 0.00333 s⁻¹ and 0.00344 s⁻¹ and 0.00318 s⁻¹
- koff [13]: 0.00684 s⁻¹ and 0.00682 s⁻¹ and 0.00672 s⁻¹
- koff ([13]; mean): 0.00679 s⁻¹
- koff [14]: 0.00583 s⁻¹ and 0.00632 s⁻¹ and 0.00607 s⁻¹
- koff ([14]; mean): 0.00607 s⁻¹
- koff [15]: 0.00294 s⁻¹ and 0.00337 s⁻¹ and 0.00333 s⁻¹
- koff ([15]; mean): 0.00321 s⁻¹
- koff [16]: 0.00203 s⁻¹ and 0.000861 s⁻¹ and 0.000902 s⁻¹
- koff ([16]; mean): 0.00127 s⁻¹
- koff [17]: 0.00145 s⁻¹ (2×) and 0.00148 s⁻¹
- koff ([17]; mean): 0.00146 s⁻¹
- koff [18]: 0.00434 s⁻¹ (2×) and 0.00424 s⁻¹
- koff ([18]; mean): 0.00431 s⁻¹
- koff [19]: 0.00682 s⁻¹ and 0.00595 s⁻¹ and 0.00602 s⁻¹
- koff ([19]; mean): 0.00626 s⁻¹
- koff [20]: 0.0025 s⁻¹ and 0.0024 s⁻¹ and 0.00243 s⁻¹
- koff ([20]; mean): 0.00244 s⁻¹
- koff [21]: 0.0103 s⁻¹ and 0.00955 s⁻¹ and 0.00937 s⁻¹
- koff ([21]; mean): 0.00974 s⁻¹
- koff [22]: 0.00693 s⁻¹ and 0.00776 s⁻¹ and 0.00549 s⁻¹ and 0.00673 s⁻¹
- koff [23]: 0.0074 s⁻¹ and 0.00639 s⁻¹ and 0.00848 s⁻¹
- koff ([23]; mean): 0.00742 s⁻¹
- koff [24]: 0.00101 s⁻¹ and 0.000958 s⁻¹ and 0.00117 s⁻¹
- koff ([24]; mean): 0.00105 s⁻¹
- koff [25]: 0.00636 s⁻¹ and 0.00686 s⁻¹ and 0.00525 s⁻¹ and 0.00615 s⁻¹
- koff [26]: 0.00121 s⁻¹ and 0.0012 s⁻¹ and 0.00122 s⁻¹
- koff ([26]; mean): 0.00121 s⁻¹
B1: P15 BiP substrate peptide (peptide)
peptide: ALLLSAPRRGAGKK(Biotin)
notes: substrate peptide P15 (Misselwitz et al., 1998); Held on streptavidin BLI sensors together with a biotinylated J-domain (ERdj6 residues 390-455, wild type or H422Q; for DnaK the J-domain of DnaJ, residues 1-72); source: synthetic peptide (custom synthesis, GenScript)

B2: Chinese hamster BiP^T229A-V461F (residues 28–549), lid-truncated (domain or fragment)
chain: not shown
notes: also called apo BiP oligomer; ADP BiP oligomer; source: E. coli M15, purified (as in Perera et al., 2019; anion exchange, gel filtration)
- binding result [27]: binds
